One molecule from paper PMC4695401 (Chemistry & biology, 2015) can be followed below.

The assay concerns the target BRD-containing DNA-PKcs fragment (aa1878-2700) (UniProt P78527 1878-2700). Briefly: pull-down.

Ends that are not written are not given here. PEG = not defined here

Chain of BRD-containing DNA-PKcs fragment (aa1878-2700) (P78527 1878-2700): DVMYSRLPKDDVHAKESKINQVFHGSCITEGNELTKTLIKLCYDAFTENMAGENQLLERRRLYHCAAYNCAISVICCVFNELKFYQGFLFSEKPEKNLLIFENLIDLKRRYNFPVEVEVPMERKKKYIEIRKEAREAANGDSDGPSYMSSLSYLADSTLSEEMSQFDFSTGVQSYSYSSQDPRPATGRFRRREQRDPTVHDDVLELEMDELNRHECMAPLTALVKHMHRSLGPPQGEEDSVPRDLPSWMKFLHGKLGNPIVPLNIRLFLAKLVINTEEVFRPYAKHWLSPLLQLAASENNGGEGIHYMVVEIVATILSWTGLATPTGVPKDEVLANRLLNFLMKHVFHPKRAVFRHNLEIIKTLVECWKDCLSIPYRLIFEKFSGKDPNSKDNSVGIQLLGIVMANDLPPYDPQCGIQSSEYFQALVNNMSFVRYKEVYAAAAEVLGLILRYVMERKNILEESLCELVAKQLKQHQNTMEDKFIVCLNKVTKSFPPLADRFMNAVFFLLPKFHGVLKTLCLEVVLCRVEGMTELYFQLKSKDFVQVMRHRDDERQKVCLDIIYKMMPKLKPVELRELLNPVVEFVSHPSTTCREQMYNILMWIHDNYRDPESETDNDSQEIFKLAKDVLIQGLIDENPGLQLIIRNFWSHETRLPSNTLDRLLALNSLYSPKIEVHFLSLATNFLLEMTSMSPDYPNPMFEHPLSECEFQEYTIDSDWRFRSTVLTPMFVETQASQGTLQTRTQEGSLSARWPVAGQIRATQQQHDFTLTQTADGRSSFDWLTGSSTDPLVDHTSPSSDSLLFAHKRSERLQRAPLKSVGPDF

For SGRGK(Ac)TGGKARAKAKSR-{PEG-biotin} (reading uncertain) [H2AX K5ac-containing peptide], the binding result is given as “binds”.
